From patent US20220380473A1, “ANTI-GAL3 ANTIBODIES AND USES THEREOF” (TrueBinding, Inc., priority 2019, published 2022)

Assays:
[1] = molecular target: human Gal3-His (Homo sapiens, UniProt P17931); assay: Antibody binning by biolayer interferometry (Gator); type: binding; conditions: antibody competition
Protocol: To determine whether Gal3-binding antibodies with Gal3-TIM3 blocking activity bind to the same or overlapping regions of the Gal3 molecule, antibody binning assays were performed to assess the ability of antibodies to simultaneously bind Gal3. Amine-reactive probes were loaded onto a Gator biosensor (Probe Life, Palo Alto, Calif.), equilibrated in dH20 for 60 seconds, dipped into 100 μl EDC 0.2M/NHS 0.05M activation buffer for 30 seconds, then dipped into a solution of […] human Gal3-His in 10 mM NaOAc buffer, pH 5 until binding was saturated, and quenched in 1 M ethanolamine pH 8.5 for 300 seconds. Following Gal3-His loading, tips were dipped in 20 μg/mL saturating antibody, then successively dipped into 5 μg/mL competing antibody.

[2] = molecular target: T1, interaction of Gal3 and TIM-3 (Homo sapiens, UniProt P17931); assay: Gal3-TIM-3 interaction blockade ELISA (Example 13); type: binding; conditions: antibody at 20 ug/ml
T1 construct: full-length human Galectin-3 protein (Acro Biosystems, GA3-H5129); linker-spaced 6-histidine tag; purchased Acro Biosystems GA3-H5129 (Gal3); TM3-H5229 (TIM-3)
Protocol: To identify Gal3-targeted antibodies with the ability to block the interaction of Gal3 and TIM-3, purified Gal3 and TIM-3 proteins were incubated in the presence (or absence) of various Gal3-targeted or control antibodies, or without antibody, and protein interaction was evaluated by ELISA.
Human Gal3 protein (Acro Biosystems, GA3-H5129) was diluted in phosphate buffered saline (PBS) (Corning) to a concentration of 0.5 μg/ml and 100 ul of the diluted hGal3 was added to each well of a 96-well ELISA plate (Thermo Fisher, 44-2404-21). After incubating the plate at 4° C. overnight, the plate was washed three times with 300 μl of PBS with 0.05% TWEEN (VWR) (PBST) per well. The plate was then blocked for an hour with 200 μl of 2% bovine serum albumin (BSA) (Sigma) in PBST per well at room temperature with gentle rocking. […]
Afterwards, 50 ul of 1 ug/ml of human TIM-3 extracellular domain protein (Acro Biosystems, TM3-H5229) in 2% BSA in PBST was added to the wells. […] The plate was read using a plate reader (Molecular Devices) at absorbance of 450 nm. Percent blockade of Gal3-TIM-3 interaction was calculated as the fraction of signal obtained in the absence of antibody with the background signal subtracted.

[3] = test system: 4T1 cells; assay: 4T1 orthotopic tumor induced lung metastasis model; type: in vivo, mouse; conditions: 10 mg/Kg i.p., day 30, vs isotype control
Protocol: On the day of tumor implantation, 4T1 cells were collected, washed and resuspended in PBS. Mice were anesthetized by inhalation anesthetic (3 to 5% Isoflurane in medical grade air). 2×10^5 cells in 0.1 mL PBS were subcutaneously injected into the mammary gland by using a syringe with a 25-ga needle. Mice were randomly assigned into two groups (n=10). […] The tumor volumes and body weights were monitored twice per week. On day 30, the mice were humanely sacrificed and lung tissues were inflated with 30% sucrose, removed and fixed in Bouin's solution (Sigma-Aldrich). […] Results were expressed as mean±SEM.

[4] = test system: RAW macrophages/DO11.10 T cell mixed reaction; assay: Mixed Lymphocyte Reaction, RAW macrophages/DO11.10 T cells, IL-2; type: cell-based, mouse; conditions: 10 μg/ml, overnight, vs mIgG
Protocol: RAW mouse macrophage cells were mixed with […] mouse T cells at 1:1 ratio, treated with OVA peptide, and cultured in the presence of mIgG (BD Biosciences), anti mPD1 antibody 29F (BioXCell) or IMT001 at 10 μg/ml for overnight 37° C. 50 μl of the culture medium was taken for mIL-2 measurement. The mIL-2 production was measured according to the commercial kit mouse IL-2 Elisa Ready-SET-Go from eBioscience.

[5] = test system: a-SMA and fibronectin; assay: N-IF mouse liver fibrosis, western blot of fibrosis markers; type: in vivo; conditions: 10 mg/kg every fourth day for 40 days, vs mIgG2b
Protocol: N-IF mice were generated by crossing 24αβNOD mice and NOD.Rag2−/− mouse strains. The N-IF mice were backcrossed with the B6.Rag2−/− mouse strains for 10 generations. Mice (male and female) were separated into two groups: IMT001 antibody treatment group and mIgG2b antibody control group. Antibodies were administered to the animals every fourth day for 40 days, at 10 mg/kg body weight and the animals were subsequently sacrificed. All efforts were made to minimize suffering. Liver and Kidney tissues were collected and snap frozen in liquid nitrogen for western blot analysis. Tissue processing and western blot analysis were performed as in Example 19. GAPDH was used a loading control reference.

[6] = test system: human dendritic cells (DC), M1 and M2 macrophage cells; assay: Flow cytometry staining of human DC, M1 and M2 macrophages; type: cell-based; conditions: 10 μg/ml
Protocol: First Human CD14 monocytes were isolated from peripheral blood mononuclear cells (PBMC) with a CD14 cell positive selection kit (Miltenyi, Auburn, Calif.) and differentiated into dendritic cells (DC), or into M1 macrophages, or into M2 macrophages in the presence of GM-CSF plus IL-4, or GM-CSF, or M-CSF (Rocky Hill, N.J.), respectively. Then flow cytometry analysis was performed to detect Gal3 expression on human dendritic cells (DC), M1 and M2 macrophage cells. In details, 100,000 DC, M1 or M2 cells were incubated with 100 μl 10% FBS HBSS solution that contains with control mIgG-biotin (BioLegend) or IMT001-biotin at 10 μg/ml on ice for 20 minutes. Then cells were washed and incubated with PE-streptavidin (BioLegend) at 1:1000 on ice for 20 min. After spinning, live/dead cells were stained with Violet dead cell stain kit (Life Technologies). Stained cells were subjected to flow analysis.

Chain of human Gal3-His (P17931 whole entry): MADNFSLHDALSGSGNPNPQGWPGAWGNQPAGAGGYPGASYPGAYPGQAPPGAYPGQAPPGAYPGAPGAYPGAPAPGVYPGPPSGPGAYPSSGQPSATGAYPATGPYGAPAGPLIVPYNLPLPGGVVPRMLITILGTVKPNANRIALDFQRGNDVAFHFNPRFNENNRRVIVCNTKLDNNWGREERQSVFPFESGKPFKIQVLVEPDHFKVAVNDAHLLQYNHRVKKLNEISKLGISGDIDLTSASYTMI
T1 sequence (P17931 2-250 limits assumed): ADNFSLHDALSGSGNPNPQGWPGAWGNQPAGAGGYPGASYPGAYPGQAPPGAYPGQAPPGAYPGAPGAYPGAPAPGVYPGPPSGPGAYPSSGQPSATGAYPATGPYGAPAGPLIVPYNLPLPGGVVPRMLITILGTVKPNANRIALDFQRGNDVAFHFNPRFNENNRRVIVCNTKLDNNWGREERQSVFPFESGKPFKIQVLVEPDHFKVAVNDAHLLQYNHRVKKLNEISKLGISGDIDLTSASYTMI

B1: IMT001: anti-Gal3 monoclonal antibody (Immutics); printed as mIMT001 (IMT001), murine (antibody, V domains shown)
VH: QIQLVQSGPELKKPGETVKISCKASGYTFTNYGMNWVKQAPGKGLKWMGWINTNTGEPTYVEEFKGRFAFSLETSASTAYLQINNLKNEDTATYFCAPYDNFFAYWGQGTLVTVSA
VL: DIVITQDELSNPVTSGESVSISCRSSKSLLYKDGKTYLNWFLQRPGQSPQLLIYLMSTHASGVSDRFSGSGSGTDFTLEISRVKAEDVGVYYCQQLVDYPLTFGAGTKLELK
B1 was tested, and the Bin [1] was 1, the “Gal3-TIM-3 binding, % of unblocked control (no antibody)” value [2] was 7% and the lung metastatic number [3] was “significant reduction of lung metastatic number”. The “production of IL-2” value [4] was “enhanced the production of IL-2”, the “expression of fibrotic markers a-SMA and fibronectin in liver” value [5] was “significant reductions” and the “staining of dendritic cells and M1 macrophages” value [6] was “could not be stained”. For the same molecule, the “mean fluorescence intensity (MFI) of stained M2 cells vs isotype control” value ([6]; human M2 macrophages) was “much higher”.
